Measured values published in PMC8815974, “Mechanistic Insight Into Cadmium- and Zinc-Induced Inactivation of the Candida albicans Pif1 Helicase”.

B1: OhS22D21 (dsDNA)
DNA 1: CTGTAGGAATGTGAAATAAAAACGATGTTTTATTTACATTGTA
DNA 2: TACAATGTAAATAAAACATCG

Biological target: T1, CaPif1 (Candida albicans, UniProt Q59RQ0 1-906)
T1 sequence: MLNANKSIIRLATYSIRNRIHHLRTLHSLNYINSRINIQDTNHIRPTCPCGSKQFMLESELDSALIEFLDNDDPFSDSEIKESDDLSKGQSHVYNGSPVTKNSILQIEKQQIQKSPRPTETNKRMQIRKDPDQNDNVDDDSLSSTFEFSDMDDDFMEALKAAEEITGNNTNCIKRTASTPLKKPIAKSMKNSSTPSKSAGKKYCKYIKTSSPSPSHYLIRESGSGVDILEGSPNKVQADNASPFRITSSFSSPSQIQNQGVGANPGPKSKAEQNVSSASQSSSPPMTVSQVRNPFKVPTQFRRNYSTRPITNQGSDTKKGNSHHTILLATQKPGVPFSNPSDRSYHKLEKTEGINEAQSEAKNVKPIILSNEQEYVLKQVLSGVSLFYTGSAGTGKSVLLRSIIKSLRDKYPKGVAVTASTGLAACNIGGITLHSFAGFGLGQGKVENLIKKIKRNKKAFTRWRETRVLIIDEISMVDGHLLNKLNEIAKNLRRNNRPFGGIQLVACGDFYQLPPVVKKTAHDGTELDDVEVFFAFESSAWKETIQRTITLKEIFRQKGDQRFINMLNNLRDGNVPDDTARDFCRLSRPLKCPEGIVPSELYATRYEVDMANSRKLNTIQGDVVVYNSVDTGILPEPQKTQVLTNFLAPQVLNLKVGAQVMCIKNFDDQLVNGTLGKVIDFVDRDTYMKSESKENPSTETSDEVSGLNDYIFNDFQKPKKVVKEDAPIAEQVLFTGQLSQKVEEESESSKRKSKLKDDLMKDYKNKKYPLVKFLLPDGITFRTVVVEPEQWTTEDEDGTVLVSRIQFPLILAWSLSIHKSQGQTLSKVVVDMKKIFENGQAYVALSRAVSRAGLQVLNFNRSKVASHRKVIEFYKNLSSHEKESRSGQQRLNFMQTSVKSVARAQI
Experiment: EMSA; 1.5 mM Mg2+, no ATP; CaPif1 0-3000 nM; 25 mM Tris-HCl pH 7.5, 50 mM NaCl, 1.5 mM MgCl2, 1 mM DTT, 25 C; EMSA 10 nM DNA, 5 min, 6% native PAGE; FP 5 nM DNA, 10 min
Settings: protein: recombinant, tags: none (N-terminal His-SUMO tag removed)

| Binder | binding result (label: 3'-FAM, single strand, 40 nt) | binding result (label: 3'-FAM on strand 1, 5' overhang 22 nt, 21 bp duplex) |
| --- | --- | --- |
| CCATGCAGCTGTCAGTCCATTGTCATGCTAGGCCTACTGC (ssDNA) [S40] | binds |  |
| B1 |  | binds |
